The source of these data is publication PMC11444770, “Moesin contributes to heat shock gene response through direct binding to the Med15 subunit of the Mediator complex in the nucleus” (Open Biology, 2024).

B3: GST-Med17 (natural protein, Drosophila melanogaster, UniProt Q9VEC1 1-642, looked up)
chain: MSNSVNISVETTCENQIREIGYDGTELYQPPPTLSESLAKCAARIDFSKTSLDDLKKEEKSAAAAADEDKDATQFQESLWPWDAVRNKLKDALTEICVLSDVISIAKDKRYLVLDPLLEEADDTKPIVQVYSRKKAISQAAQVLLSGAERLRNAHSEQRNRNVSDFHIELLRLRQNWRLKKVSNAIIGDLSYRTAGSKFGMSGTFEVTKAEETGDEDTASSSNSSSSVSGNNGMQLKASSALRVIVPAELQGVAYIKVITQKDQEDLCTAQLNLMGHGPNITAQVGVWQKTLEFAQNVLFCKELFAQLAREAIQLQAPIPHVVIGNQIRATLLPNIQLIISLCHSTTFDSSQPAPINDHDHVLEHSLHQLLREVHYKNSHHPFPHPASAPLGPTKKRMLAGPMAADRETLLDMTKSQTILEQIIAQAQHIFMRKRTQYVLDTLARDVKDPQIVSHWNAMNSPTMSCVKINIVTHGYDAIGRTSLVIHVKERSLKCICRDGRVMRLSYEPQELRDLILCQINSHQISCLISLARCMSWTVLSNSNHLGIGKVEPLGNASSCLLASPNSDRMIAVQIRCDPQIDVKVYIARSPRQDFFPSPLVPEKLWENLGGTFKEVRFDKIEGKSFLNKMEFLMASLTSNTA
notes: Med17, Drosophila Mediator subunit; CDS amplified with the primers Med17 pGex6P-1 Fw/Rev (start to stop codon) and cloned into pGex6P-1; source: E. coli SixPack, purified on Glutathione Sepharose 4B, kept on the beads; not shown: GST, N-terminal, kept
B4: 6xHis-Hsf (natural protein, Drosophila melanogaster, UniProt P22813 1-691, looked up)
chain: MSRSRSSAKAVQFKHESEEEEEDEEEQLPSRRMHSYGDAAAIGSGVPAFLAKLWRLVDDADTNRLICWTKDGQSFVIQNQAQFAKELLPLNYKHNNMASFIRQLNMYGFHKITSIDNGGLRFDRDEIEFSHPFFKRNSPFLLDQIKRKISNNKNGDDKGVLKPEAMSKILTDVKVMRGRQDNLDSRFSAMKQENEVLWREIASLRQKHAKQQQIVNKLIQFLITIVQPSRNMSGVKRHVQLMINNTPEIDRARTTSETESESGGGPVIHELREELLDEVMNPSPAGYTAASHYDQESVSPPAVERPRSNMSISSHNVDYSNQSVEDLLLQGNGTAGGNILVGGAASPMAQSVSQSPAQHDVYTVTEAPDSHVQEVPNSPPYYEEQNVLTTPMVREQEQQKRQQLKENNKLRRQAGDVILDAGDILVDSSSPKAQRTSIQHSTQPDVMVQPMIIKSEPENSSGLMDLMTPANDLYSVNFISEDMPTDIFEDALLPDGVEEAAKLDQQQKFGQSTVSSGKFASNFDVPTNSTLLDANQASTSKAAAKAQASEEEGMAVAKYSGAENGNNRDTNNSQLLRMASVDELHGHLESMQDELETLKDLLRGDGVAIDQNMLMGLFNDSDLMDNYGLSFPNDSISSEKKAPSGSELISYQPMYDLSDILDTDDGNNDQEASRRQMQTQSSVLNTPRHEL
notes: heat shock factor (Hsf), the Drosophila Hsf1 homologue; The methods say C-terminal 6xHis tagging in pDEST17, while the label 6xHis-Hsf puts the tag first; as far as I recall pDEST17 adds an N-terminal His tag; also called heat shock factor; source: E. coli, purified (HisPur Cobalt Resin or Ni-NTA beads); not shown: 6xHis, C-terminal, kept

Holding throughout (assay): pull-down; GST-6xHis pull-down: GST-tagged baits immobilised on glutathione beads, purified 6xHis-tagged preys; 50 mM Hepes pH 7.5, 150 mM NaCl, 2 mM MgCl2, 1 mM EGTA, 1 mM DTT, 0.1% Triton X-100, 0.5 mg/ml BSA; 1.5 h at 4°C; western blot
Details in all cases: both partners purified
In general terms: Immunoblotting shows a protein as a band on a membrane.

One experiment addresses T1, GST-Med15 (Drosophila melanogaster, UniProt Q9Y149 1-749).
T1 construct: Med15, Drosophila Mediator subunit; CDS amplified with the primers Med15 pGex6P-1 Fw/Rev (start to stop codon) and cloned into pGex6P-1; source: E. coli SixPack, purified on Glutathione Sepharose 4B, kept on the beads; not shown: GST, N-terminal, kept
T1 sequence (looked up): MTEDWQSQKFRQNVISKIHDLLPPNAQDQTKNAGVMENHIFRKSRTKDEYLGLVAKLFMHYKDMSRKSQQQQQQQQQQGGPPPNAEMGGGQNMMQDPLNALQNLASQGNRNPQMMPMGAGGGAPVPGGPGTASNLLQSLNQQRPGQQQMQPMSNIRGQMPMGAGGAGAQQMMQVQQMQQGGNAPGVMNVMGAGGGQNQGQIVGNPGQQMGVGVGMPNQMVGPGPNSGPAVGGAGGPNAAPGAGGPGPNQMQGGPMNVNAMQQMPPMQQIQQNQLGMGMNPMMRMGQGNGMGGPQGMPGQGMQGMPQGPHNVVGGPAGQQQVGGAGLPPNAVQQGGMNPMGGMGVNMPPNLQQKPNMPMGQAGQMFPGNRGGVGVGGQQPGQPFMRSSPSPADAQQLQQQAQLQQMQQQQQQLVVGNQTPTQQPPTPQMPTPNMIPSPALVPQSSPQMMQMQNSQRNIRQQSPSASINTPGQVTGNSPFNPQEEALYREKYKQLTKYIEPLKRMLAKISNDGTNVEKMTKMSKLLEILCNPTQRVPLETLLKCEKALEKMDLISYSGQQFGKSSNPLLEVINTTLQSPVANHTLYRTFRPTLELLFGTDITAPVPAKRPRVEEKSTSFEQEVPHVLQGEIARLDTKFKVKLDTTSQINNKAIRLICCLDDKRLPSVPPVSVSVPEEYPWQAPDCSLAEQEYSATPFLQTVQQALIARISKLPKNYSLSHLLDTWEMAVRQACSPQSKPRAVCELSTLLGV

In the experiment “GST-Med17” the target is B3.
The experiment “6xHis-Hsf” addresses B4.

B1: 6xHis-FERM-Moe (domain or fragment, Drosophila melanogaster, UniProt P46150 1-484, looked up)
chain: MSPKALNVRVTTMDAELEFAIQSTTTGKQLFDQVVKTIGLREVWFFGLQYTDSKGDSTWIKLYKKVMNQDVKKENPLQFRFRAKFYPEDVAEELIQDITLRLFYLQVKNAILTDEIYCPPETSVLLASYAVQARHGDHNKTTHTAGFLANDRLLPQRVIDQHKMSKDEWEQSIMTWWQEHRSMLREDAMMEYLKIAQDLEMYGVNYFEIRNKKGTDLWLGVDALGLNIYEQDDRLTPKIGFPWSEIRNISFSEKKFIIKPIDKKAPDFMFFAPRVRINKRILALCMGNHELYMRRRKPDTIDVQQMKAQAREEKNAKQQEREKLQLALAARERAEKKQQEYEDRLKQMQEDMERSQRDLLEAQDMIRRLEEQLKQLQAAKDELELRQKELQAMLQRLEEAKNMEAVEKLKLEEEIMAKQMEVQRIQDEVNAKDEETKRLQDEVEDARRKQVIAAEAAAALLAASTTPQHHHVAEDENENEEELT
notes: Drosophila Moesin, amino acids 1-484 (FERM-Moe); The methods say C-terminal 6xHis tagging in pDEST17, while the label 6xHis-FERM-Moe puts the tag first; as far as I recall pDEST17 adds an N-terminal His tag; also called 6xHis-tagged FERM-Moesin; source: E. coli, purified (HisPur Cobalt Resin or Ni-NTA beads); not shown: 6xHis, C-terminal, kept
For B1, the binding result with GST-Med15 and with GST-Med17 was “binds” each time.

B2: GST-FERM-Moesin (domain or fragment, Drosophila melanogaster, UniProt P46150 1-484, looked up)
chain: MSPKALNVRVTTMDAELEFAIQSTTTGKQLFDQVVKTIGLREVWFFGLQYTDSKGDSTWIKLYKKVMNQDVKKENPLQFRFRAKFYPEDVAEELIQDITLRLFYLQVKNAILTDEIYCPPETSVLLASYAVQARHGDHNKTTHTAGFLANDRLLPQRVIDQHKMSKDEWEQSIMTWWQEHRSMLREDAMMEYLKIAQDLEMYGVNYFEIRNKKGTDLWLGVDALGLNIYEQDDRLTPKIGFPWSEIRNISFSEKKFIIKPIDKKAPDFMFFAPRVRINKRILALCMGNHELYMRRRKPDTIDVQQMKAQAREEKNAKQQEREKLQLALAARERAEKKQQEYEDRLKQMQEDMERSQRDLLEAQDMIRRLEEQLKQLQAAKDELELRQKELQAMLQRLEEAKNMEAVEKLKLEEEIMAKQMEVQRIQDEVNAKDEETKRLQDEVEDARRKQVIAAEAAAALLAASTTPQHHHVAEDENENEEELT
notes: pGex6P-1 vector; also called GST-Moesin; source: E. coli SixPack, purified on Glutathione Sepharose 4B, kept on the beads; not shown: GST, N-terminal, kept
Turning to B2, in the experiment with 6xHis-Hsf, the binding result is on record as “binds”.

Regarding B3, in the experiment with 6xHis-Hsf, the binding result is recorded as “binds”.

Regarding B4, in the experiment with GST-Med15, the binding result is “binds”.
